# Biological target: the molecule itself
# Assay: not stated; MLKL trimer formation in T/S-treated L929 cells, with or without UCF-101 (Supplementary Fig. 5)
protein,measurement,value
"MLKL (natural protein, mouse (endogenous in L929), UniProt Q9D2Y4 1-472, looked up, MLKL, endogenous in the mouse fibroblast line L929; The trimer is seen in the execution phase of necroptosis; also called mixed lineage kinase domain like pseudokinase; MLKL trimer; source: endogenous, L929 cells treated with TNF-α plus Smac mimetic (T/S)) MDKLGQIIKLGQLIYEQCEKMKYCRKQCQRLGNRVHGLLQPLQRLQAQGKKNLPDDITAALGRFDEVLKEANQQIEKFSKKSHIWKFVSVGNDKILFHEVNEKLRDVWEELLLLLQVYHWNTVSDVSQPASWQQEDRQDAEEDGNENMKVILMQLQISVEEINKTLKQCSLKPTQEIPQDLQIKEIPKEHLGPPWTKLKTSKMSTIYRGEYHRSPVTIKVFNNPQAESVGIVRFTFNDEIKTMKKFDSPNILRIFGICIDQTVKPPEFSIVMEYCELGTLRELLDREKDLTMSVRSLLVLRAARGLYRLHHSETLHRNISSSSFLVAGGYQVKLAGFELSKTQNSISRTAKSTKAERSSSTIYVSPERLKNPFCLYDIKAEIYSFGIVLWEIATGKIPFEGCDSKKIRELVAEDKKQEPVGQDCPELLREIINECRAHEPSQRPSVDGRSLSGRERILERLSAVEESTDKKV",stoichiometry N,3

# Reference: publication PMC6482197, “Inhibition of HtrA2 alleviated dextran sulfate sodium (DSS)-induced colitis by preventing necroptosis of intestinal epithelial cells” (Cell Death & Disease, 2019)
